Consider two substances from US20250188186A1.

Assay [1] has as its target human FcγRIIa H131 ectodomain, N-terminal AVI and C-terminal His tags (human) (UniProt P12318). Briefly: BLI, antibody on FAB2G tips, FcγRIIa H131 in solution, pH 6.5, steady-state Kd,SS.
Assay [2] deals with human FcγRIIa R131 ectodomain, N-terminal AVI and C-terminal His tags (human) (UniProt P12318). Briefly: BLI, antibody on FAB2G tips, FcγRIIa R131 in solution, pH 7.4, steady-state Kd,SS. In general terms: In BLI a coated tip is dipped into the sample, and binding shifts an interference pattern.
Assay [3] has the same target. Briefly: BLI, antibody on FAB2G tips, FcγRIIa R131 in solution, pH 6.5, steady-state Kd,SS.
The target in assay [4] is human FcγRIIb ectodomain, N-terminal AVI and C-terminal His tags (human) (UniProt P31994). The assay can be described thus: BLI, antibody on FAB2G tips, FcγRIIb in solution, pH 7.4, steady-state Kd,SS.
The target of assay [5] is human FcγRIIIa F158 ectodomain, N-terminal AVI and C-terminal His tags (human) (UniProt P08637). The assay can be described thus: BLI, antibody on FAB2G tips, FcγRIIIa F158 in solution, pH 7.4, steady-state Kd,SS (Langmuir fit).
Assay [6] has as its target FcγRIIIa allele V158 on NK-92 effector cells (human) (UniProt P08637). Briefly: cell-based or functional assay.
For assay [7], the target named is human FcγRIIa H131 ectodomain, N-terminal AVI and C-terminal His tags (human) (UniProt P12318). Briefly: BLI, antibody on FAB2G tips, FcγRIIa H131 in solution, pH 7.4, steady-state Kd,SS.
Assay [8] concerns the target human FcγRIIIa F158 ectodomain, N-terminal AVI and C-terminal His tags (human) (UniProt P08637). The assay can be described thus: BLI, antibody on FAB2G tips, FcγRIIIa F158 in solution, pH 7.4, kinetic Kd.
Assay [9] has the same target. Briefly: BLI, antibody on FAB2G tips, FcγRIIIa F158 in solution, pH 6.5, kinetic Kd.
For assay [10] the target is unchanged. The assay can be described thus: BLI, antibody on FAB2G tips, FcγRIIIa F158 in solution, pH 6.5, steady-state Kd,SS (Langmuir fit).
The target of assay [11] is human FcγRIIb ectodomain, N-terminal AVI and C-terminal His tags (human) (UniProt P31994). Briefly: BLI, antibody on FAB2G tips, FcγRIIb in solution, pH 6.5, steady-state Kd,SS.
Assay [12] addresses GST-tagged human FcRn-β2m (human) (UniProt P55899). Briefly: ELISA, antibody immobilized, FcRn titrated (the concentration is that of FcRn), anti-FLAG-HRP, pH 6.0 [pH 6.0]. Background: In an ELISA, binding on a coated surface is turned into a signal by an enzyme label.

FcγRIIIa allele V158 on NK-92 effector cells (human), sequence (P08637 17-254 F176V): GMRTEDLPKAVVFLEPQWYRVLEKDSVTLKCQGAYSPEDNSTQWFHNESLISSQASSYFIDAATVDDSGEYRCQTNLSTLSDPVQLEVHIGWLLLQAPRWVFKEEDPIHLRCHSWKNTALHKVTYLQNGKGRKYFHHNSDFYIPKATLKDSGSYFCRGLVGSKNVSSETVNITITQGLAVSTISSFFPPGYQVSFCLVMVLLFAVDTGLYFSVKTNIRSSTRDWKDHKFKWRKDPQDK
human FcγRIIIa F158 ectodomain, N-terminal AVI and C-terminal His tags (human), sequence (P08637 17-208): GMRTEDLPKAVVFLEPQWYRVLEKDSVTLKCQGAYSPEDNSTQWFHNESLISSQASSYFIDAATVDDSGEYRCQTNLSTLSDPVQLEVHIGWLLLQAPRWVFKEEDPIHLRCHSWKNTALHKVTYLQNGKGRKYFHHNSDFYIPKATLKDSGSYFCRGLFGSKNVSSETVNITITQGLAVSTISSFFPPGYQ
human FcγRIIb ectodomain, N-terminal AVI and C-terminal His tags (human), sequence (P31994 43-217): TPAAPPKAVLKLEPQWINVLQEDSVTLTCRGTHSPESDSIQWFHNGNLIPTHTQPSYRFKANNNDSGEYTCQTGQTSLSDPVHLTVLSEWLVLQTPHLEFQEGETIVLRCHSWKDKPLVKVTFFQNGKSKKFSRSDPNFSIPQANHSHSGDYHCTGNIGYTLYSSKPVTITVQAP
human FcγRIIa H131 ectodomain, N-terminal AVI and C-terminal His tags (human), sequence (P12318 34-217): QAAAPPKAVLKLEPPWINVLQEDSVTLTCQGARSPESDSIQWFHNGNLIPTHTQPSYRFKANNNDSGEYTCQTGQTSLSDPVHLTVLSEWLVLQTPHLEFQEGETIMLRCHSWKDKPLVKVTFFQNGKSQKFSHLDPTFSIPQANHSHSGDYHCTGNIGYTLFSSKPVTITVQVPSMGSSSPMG
human FcγRIIa R131 ectodomain, N-terminal AVI and C-terminal His tags (human), sequence (P12318 34-217 H167R): as the sequence (P12318 34-217) above, with H134R counted along it
GST-tagged human FcRn-β2m (human), sequence (P55899 24-297 limits assumed, chain 1 of 2): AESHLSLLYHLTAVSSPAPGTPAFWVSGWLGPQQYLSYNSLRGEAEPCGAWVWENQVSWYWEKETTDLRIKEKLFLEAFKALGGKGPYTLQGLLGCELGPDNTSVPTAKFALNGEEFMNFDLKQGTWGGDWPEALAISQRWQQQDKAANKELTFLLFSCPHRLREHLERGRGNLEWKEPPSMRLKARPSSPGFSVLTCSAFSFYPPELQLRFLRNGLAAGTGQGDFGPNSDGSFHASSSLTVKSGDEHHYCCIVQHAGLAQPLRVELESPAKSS
GST-tagged human FcRn-β2m (human), sequence (P61769 21-119 limits assumed, chain 2 of 2, further chain): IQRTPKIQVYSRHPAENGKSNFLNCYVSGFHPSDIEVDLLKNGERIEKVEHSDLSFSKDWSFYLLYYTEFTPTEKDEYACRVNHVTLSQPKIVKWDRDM

With “hu4D5 antibody with acid-Fc (S267E, H268D, Y296H)”, the Kd stood at 331 nM in assay [1]; 37.1 nM in assay [2]; 37.1 nM in assay [3]; 109 nM in [4]; 1090 nM in assay [5]; 497 nM in assay [7]. The Kd in assay [8] turned out to be 909 nM; in assay [9], 538 nM; in assay [10], 603 nM; in assay [11] it was 112 nM. Besides, the ADCC EC50, SKBR3 target cells, NK-92 (V158) effector cells, pH 6.5 in assay [6] stood at 121 ng/mL. Moreover, the ADCC EC50, SKBR3 target cells, NK-92 (V158) effector cells, pH 7.4 in assay [6] was 2310 ng/mL. In addition, the ADCC: lysis of calcein-loaded SKOV3 target cells, 50 ng/mL antibody, E:T 10:1, 4 h, pH 6.5 in assay [6] is 47.6%. The ADCC: lysis of calcein-loaded SKOV3 target cells, 50 ng/mL antibody, E:T 10:1, 4 h, pH 7.4 in assay [6] is 19.5%.
In [12], “hu4D5 antibody with M252Y/S254T/T256E (YTE) Fc” showed an EC50 (read off the curve) of 0.01 µg/mL.

In general, Kd refers to the constant that tells how readily two partners part at equilibrium. Read a high Kd as a looser complex. As usually defined, the EC50 (read off the curve) is the concentration that produces a half-maximal response.
